What was measured:
[1] = system: c-Abl (mouse); assay: phosphorylation enrichment, bacterial display (enrichment ratio); higher = better substrate or ligand; peptides without Tyr show the background
[2] = system: c-Src; assay: as above
[3] = target: Hck (UniProt P08631); assay: as above
[4] = system: Fer (mouse); assay: as above
[5] = target: FGFR1 (UniProt P11362); assay: as above
[6] = target: FGFR3 (UniProt P22607); assay: as above
[7] = target: Jak2 (UniProt O60674); assay: as above
[8] = target: Fyn (UniProt P06241); assay: as above
[9] = target: EPHB2 (UniProt P29323); assay: as above
[10] = target: EPHB1 (UniProt P54762); assay: as above
[11] = target: Fes (UniProt P07332); assay: as above
[12] = system: AncSZ; assay: as above
[13] = target: MERTK (UniProt Q12866); assay: as above
[14] = target: SHP2-C SH2; assay: SH2 binding enrichment of the phosphorylated peptide, bacterial display (enrichment ratio); higher = better substrate or ligand; peptides without Tyr show the background
[15] = target: c-Src SH2; assay: as above
[16] = target: Grb2 SH2 (UniProt P62993); assay: as above
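For SH2 binding enrichment of the phosphorylated peptide, bacterial display in this document: peptide library displayed on the E. coli surface as eCPX fusions, selected cells deep-sequenced, score is each peptide's frequency after selection divided by its frequency in the input.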
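For phosphorylation enrichment, bacterial display in this document: 11-residue human phosphosite peptides and single-mutation variants displayed on the E. coli surface, counted by deep sequencing, each peptide's frequency after selection divided by its frequency in the unselected input library; frequency after pTyr selection over input frequency; kinase dosed for 20-30% of maximal phosphorylation in three min.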

Chain of EPHB2 (P29323 whole entry, looked up): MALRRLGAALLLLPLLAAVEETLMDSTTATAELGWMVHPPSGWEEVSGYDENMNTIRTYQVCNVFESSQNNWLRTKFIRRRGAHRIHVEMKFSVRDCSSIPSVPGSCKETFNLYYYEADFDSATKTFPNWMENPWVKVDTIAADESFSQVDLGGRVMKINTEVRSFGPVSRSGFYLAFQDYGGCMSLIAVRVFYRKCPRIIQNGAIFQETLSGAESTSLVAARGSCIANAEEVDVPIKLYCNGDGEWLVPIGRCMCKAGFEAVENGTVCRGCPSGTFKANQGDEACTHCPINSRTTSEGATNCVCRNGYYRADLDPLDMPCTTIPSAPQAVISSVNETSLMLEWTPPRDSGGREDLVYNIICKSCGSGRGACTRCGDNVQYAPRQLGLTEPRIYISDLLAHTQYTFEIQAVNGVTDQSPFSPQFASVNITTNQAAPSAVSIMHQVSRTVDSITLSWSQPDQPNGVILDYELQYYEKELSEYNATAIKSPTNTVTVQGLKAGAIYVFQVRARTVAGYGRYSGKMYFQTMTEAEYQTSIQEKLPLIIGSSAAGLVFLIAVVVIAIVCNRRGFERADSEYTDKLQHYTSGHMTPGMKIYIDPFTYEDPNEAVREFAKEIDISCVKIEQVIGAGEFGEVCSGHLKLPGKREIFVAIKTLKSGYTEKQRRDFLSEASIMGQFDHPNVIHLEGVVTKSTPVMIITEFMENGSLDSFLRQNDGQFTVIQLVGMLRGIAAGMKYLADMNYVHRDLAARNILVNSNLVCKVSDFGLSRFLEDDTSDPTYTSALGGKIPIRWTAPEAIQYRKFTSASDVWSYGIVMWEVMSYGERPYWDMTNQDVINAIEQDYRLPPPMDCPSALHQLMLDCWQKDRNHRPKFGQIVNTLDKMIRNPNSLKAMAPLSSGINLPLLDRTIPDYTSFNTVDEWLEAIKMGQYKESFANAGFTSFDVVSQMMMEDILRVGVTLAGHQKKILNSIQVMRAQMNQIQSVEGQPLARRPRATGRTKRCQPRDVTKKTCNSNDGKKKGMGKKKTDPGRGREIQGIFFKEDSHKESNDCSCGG
Chain of MERTK (Q12866 whole entry, looked up): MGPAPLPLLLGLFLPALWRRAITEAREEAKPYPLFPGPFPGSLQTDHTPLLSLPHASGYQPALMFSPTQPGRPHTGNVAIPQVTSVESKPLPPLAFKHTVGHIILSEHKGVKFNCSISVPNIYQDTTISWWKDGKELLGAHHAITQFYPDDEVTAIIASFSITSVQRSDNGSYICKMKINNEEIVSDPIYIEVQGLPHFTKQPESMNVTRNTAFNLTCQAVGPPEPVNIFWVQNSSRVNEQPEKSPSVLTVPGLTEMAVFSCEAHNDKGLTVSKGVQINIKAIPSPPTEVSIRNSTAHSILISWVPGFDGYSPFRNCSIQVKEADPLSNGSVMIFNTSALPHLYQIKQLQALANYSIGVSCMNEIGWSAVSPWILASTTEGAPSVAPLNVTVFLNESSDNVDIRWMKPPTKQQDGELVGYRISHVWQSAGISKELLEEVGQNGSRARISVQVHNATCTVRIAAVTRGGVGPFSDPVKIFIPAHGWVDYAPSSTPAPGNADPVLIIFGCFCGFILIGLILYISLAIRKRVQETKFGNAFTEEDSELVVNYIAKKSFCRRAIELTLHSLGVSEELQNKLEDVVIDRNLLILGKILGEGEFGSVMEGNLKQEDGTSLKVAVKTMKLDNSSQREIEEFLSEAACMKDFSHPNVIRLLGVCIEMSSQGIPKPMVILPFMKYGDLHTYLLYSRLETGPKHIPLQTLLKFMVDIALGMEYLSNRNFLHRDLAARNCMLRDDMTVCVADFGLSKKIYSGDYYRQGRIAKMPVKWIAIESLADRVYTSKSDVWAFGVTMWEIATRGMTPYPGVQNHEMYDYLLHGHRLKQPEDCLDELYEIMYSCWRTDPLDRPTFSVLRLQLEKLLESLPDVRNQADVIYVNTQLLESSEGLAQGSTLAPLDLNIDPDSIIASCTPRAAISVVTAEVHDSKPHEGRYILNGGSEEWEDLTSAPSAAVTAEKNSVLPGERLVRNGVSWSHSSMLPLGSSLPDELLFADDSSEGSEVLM
Chain of FGFR1 (P11362 whole entry, looked up): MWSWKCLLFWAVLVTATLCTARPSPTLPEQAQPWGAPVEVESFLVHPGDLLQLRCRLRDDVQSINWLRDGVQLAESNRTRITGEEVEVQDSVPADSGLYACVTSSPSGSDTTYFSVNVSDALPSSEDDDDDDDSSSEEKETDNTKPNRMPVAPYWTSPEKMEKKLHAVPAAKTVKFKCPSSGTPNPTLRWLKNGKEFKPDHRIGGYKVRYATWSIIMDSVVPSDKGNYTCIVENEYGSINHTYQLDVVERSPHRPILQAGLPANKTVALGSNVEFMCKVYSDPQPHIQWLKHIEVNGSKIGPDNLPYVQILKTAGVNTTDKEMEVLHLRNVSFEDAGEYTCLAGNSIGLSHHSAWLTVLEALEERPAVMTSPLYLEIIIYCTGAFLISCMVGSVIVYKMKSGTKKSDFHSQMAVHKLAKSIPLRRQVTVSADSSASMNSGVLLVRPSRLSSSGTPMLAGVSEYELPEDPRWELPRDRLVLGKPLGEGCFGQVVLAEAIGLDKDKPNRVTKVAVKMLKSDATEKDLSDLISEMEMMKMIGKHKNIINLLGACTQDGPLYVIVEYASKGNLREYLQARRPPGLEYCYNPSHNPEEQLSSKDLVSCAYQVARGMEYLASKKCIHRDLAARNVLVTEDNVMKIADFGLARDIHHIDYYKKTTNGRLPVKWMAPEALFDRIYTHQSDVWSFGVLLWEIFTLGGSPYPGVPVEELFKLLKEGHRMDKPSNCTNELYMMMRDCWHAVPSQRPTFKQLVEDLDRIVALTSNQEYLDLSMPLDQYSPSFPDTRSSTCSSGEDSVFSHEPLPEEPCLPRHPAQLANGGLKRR
Chain of Hck (P08631 whole entry, looked up): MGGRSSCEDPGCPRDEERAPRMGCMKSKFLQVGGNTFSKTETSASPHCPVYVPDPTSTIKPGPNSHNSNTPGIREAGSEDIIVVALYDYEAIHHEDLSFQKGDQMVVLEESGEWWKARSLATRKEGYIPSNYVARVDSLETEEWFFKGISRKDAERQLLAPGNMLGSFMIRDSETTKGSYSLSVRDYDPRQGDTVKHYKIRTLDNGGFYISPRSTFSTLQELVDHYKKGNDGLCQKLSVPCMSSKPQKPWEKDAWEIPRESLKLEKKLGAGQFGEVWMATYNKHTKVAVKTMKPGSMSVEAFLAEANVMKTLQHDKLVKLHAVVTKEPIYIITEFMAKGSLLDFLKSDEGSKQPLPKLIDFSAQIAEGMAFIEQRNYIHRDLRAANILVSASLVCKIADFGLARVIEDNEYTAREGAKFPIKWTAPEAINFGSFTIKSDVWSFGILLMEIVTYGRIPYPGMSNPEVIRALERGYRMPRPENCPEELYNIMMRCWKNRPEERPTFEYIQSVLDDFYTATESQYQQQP
Chain of FGFR3 (P22607 whole entry, looked up): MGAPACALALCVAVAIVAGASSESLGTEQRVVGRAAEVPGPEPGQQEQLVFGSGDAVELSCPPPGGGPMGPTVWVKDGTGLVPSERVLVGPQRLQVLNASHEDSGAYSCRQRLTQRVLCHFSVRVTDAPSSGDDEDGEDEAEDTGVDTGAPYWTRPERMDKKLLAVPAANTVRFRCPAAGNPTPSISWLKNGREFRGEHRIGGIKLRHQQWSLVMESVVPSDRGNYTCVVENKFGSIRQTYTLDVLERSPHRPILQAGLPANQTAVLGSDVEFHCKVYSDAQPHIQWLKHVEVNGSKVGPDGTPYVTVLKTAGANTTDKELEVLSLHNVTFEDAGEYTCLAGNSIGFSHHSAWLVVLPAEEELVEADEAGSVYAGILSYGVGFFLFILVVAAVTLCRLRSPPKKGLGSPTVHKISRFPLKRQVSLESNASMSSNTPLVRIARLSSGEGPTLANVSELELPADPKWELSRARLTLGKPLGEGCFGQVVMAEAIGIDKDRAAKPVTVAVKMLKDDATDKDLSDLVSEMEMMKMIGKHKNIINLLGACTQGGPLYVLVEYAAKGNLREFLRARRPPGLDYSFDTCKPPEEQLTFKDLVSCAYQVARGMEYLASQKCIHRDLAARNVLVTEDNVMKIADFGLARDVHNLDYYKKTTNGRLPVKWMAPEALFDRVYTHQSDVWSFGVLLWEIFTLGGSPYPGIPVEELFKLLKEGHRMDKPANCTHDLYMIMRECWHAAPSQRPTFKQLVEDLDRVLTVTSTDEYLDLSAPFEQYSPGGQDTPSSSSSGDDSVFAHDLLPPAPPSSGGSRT
Chain of Fyn (P06241 whole entry, looked up): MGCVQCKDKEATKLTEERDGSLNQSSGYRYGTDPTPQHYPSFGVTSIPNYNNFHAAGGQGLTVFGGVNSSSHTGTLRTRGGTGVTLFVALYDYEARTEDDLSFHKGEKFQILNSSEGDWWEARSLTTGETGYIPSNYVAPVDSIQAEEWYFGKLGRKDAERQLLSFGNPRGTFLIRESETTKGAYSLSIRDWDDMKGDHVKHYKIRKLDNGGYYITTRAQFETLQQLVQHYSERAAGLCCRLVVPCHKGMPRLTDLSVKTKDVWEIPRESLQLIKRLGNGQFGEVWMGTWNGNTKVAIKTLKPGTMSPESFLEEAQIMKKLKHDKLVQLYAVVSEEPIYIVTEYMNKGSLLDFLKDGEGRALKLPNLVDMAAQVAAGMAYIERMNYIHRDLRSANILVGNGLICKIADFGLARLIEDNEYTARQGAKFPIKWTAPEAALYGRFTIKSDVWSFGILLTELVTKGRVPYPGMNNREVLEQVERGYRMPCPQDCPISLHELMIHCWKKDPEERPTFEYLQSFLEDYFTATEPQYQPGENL

| SH2 binding enrichment [14] | SH2 binding enrichment [15] | SH2 binding enrichment [16] | Sequence | phosphorylation enrichment [1] | phosphorylation enrichment [2] | phosphorylation enrichment [3] | phosphorylation enrichment [4] | phosphorylation enrichment [5] | phosphorylation enrichment [6] | phosphorylation enrichment [7] | phosphorylation enrichment [8] | phosphorylation enrichment [9] | phosphorylation enrichment [10] | phosphorylation enrichment [11] | phosphorylation enrichment [12] | phosphorylation enrichment [13] |
| --- | --- | --- | --- | --- | --- | --- | --- | --- | --- | --- | --- | --- | --- | --- | --- | --- |
| 0.799 | 1.08 | 0.843 | CERFSYYGMKA [SLC15A2_Y60] | 0.737 | 1.1 | 1.16 | 0.558 | 3.72 | 2.88 | 3.12 | 0.689 | 0.611 | 0.843 | 1.04 | 1.59 | 0.665 |
| 0.58 | 0.567 | 1.17 | TVHCDYLNISH [TAF1L_Y1385_P1389S] | 0.663 | 0.588 | 0.562 | 0.546 | 2.38 | 1.69 | 1.29 | 0.451 | 0.634 | 1.55 | 1.04 | 1.1 | 0.373 |
| 0.968 | 0.479 | 0.636 | TIQRMYGCDVG [HLA-A_Y123_I121R] | 0.775 | 0.594 | 0.45 | 0.46 | 0.56 | 0.598 | 0.789 | 0.442 | 0.57 | 0.504 | 1.05 | 0.761 | 0.448 |

Further lines, the sequence ahead of its results:

| Sequence | SH2 binding enrichment [14] | SH2 binding enrichment [15] | SH2 binding enrichment [16] | phosphorylation enrichment [1] | phosphorylation enrichment [2] | phosphorylation enrichment [3] | phosphorylation enrichment [4] | phosphorylation enrichment [5] | phosphorylation enrichment [6] | phosphorylation enrichment [7] | phosphorylation enrichment [8] | phosphorylation enrichment [9] | phosphorylation enrichment [10] | phosphorylation enrichment [11] | phosphorylation enrichment [12] | phosphorylation enrichment [13] |
| --- | --- | --- | --- | --- | --- | --- | --- | --- | --- | --- | --- | --- | --- | --- | --- | --- |
| IDPYTYTPFGS [CYP3A4_Y432_I431T] | 0.885 | 1.17 | 0.92 | 0.63 | 6.82 | 3.36 | 0.698 | 3.24 | 2.25 | 0.907 | 7.04 | 0.6 | 0.563 | 0.914 | 1.3 | 1.16 |
| VVAHQYSFAPD [TNS3_Y601] | 0.657 | 1.31 | 0.702 | 0.504 | 0.481 | 0.515 | 0.401 | 0.74 | 0.727 | 0.529 | 0.542 | 0.353 | 0.521 | 0.736 | 0.684 | 0.414 |
| STILLYHIMAW [GPR143_Y157] | 0.899 | 0.634 | 0.876 | 1.23 | 1.01 | 1.44 | 1.02 | 2.8 | 2.88 | 1.89 | 0.766 | 2.88 | 4.83 | 1.64 | 1.59 | 4.05 |
| SRIWVYNHYRW [BRCA2_Y2621] | 1.1 | 1.17 | 1.14 | 0.783 | 0.402 | 0.442 | 0.396 | 0.574 | 0.845 | 0.95 | 0.469 | 0.466 | 0.671 | 1.59 | 1.05 | 0.466 |
| EEVGIYRMSGV [BCR_Y1089_V1091M] | 0.957 | 0.431 | 0.744 | 9.58 | 6.23 | 5.64 | 0.535 | 0.556 | 0.612 | 1.12 | 6.38 | 0.502 | 0.55 | 0.921 | 0.925 | 0.647 |
